Paper PMC9865183

Columns and labels:
[1] = molecular target: rituximab (human monoclonal IgG1) (human); test: ITC; Z3 titrated into rituximab in the sample cell; PBS, pH 7.4, 25 °C; MicroCal PEAQ-ITC; triplicate
[2] = molecular target: rituximab (human monoclonal IgG1) (human); test: differential scanning fluorimetry; equimolar (1:1) mixture of rituximab and Z3 against rituximab alone; SYPRO orange, 20 mM Tris, pH 7.4
[3] = molecular target: rituximab (human monoclonal IgG1) (human); test: SPR; rituximab covalently immobilised (NHS/EDC) on a CM5 chip, Biacore X100; Z3 flowed over in HBS-EP+ (10 mM HEPES, 150 mM NaCl, 3 mM EDTA, 0.005% Tween-20, pH 7.4); 1:1 Langmuir model; KD calculated as koff/kon
[4] = molecular target: linear Z3 (linear trimer of the Staphylococcus aureus protein A Z domain) (Staphylococcus aureus); test: AUC; sedimentation velocity at 40,000 and 60,000 rpm, PBS (Dulbecco), 20 °C, 220 nm; molar mass transformation

Chain of rituximab (human monoclonal IgG1) (human) (heavy, as listed by the source, chain 1 of 2): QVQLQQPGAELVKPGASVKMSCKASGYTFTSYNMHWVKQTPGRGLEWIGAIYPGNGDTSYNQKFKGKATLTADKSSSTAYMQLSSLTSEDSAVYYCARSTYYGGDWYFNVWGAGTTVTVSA
Chain of rituximab (human monoclonal IgG1) (human) (light, as listed by the source, chain 2 of 2): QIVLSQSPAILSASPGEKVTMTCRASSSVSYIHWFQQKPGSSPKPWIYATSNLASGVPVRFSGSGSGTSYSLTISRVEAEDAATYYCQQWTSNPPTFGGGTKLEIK

Row | Substance | Kd [1] [nM] | dH [1] [kcal/mol] | stoichiometry N (IgG1 molecules per cyclic Z3 molecule) [1] | increase of the lower transition temperature of rituximab [2] [°C] | upward shift of the 81.3 °C transition of rituximab [2] [°C] | Kd [3] [nM] | koff [3] [s⁻¹] | kon [3] [M⁻¹ s⁻¹] | stoichiometry N (IgG1 molecules per linear Z3) [1] | stoichiometry N [4]
1 | cyclic Z3 (intein-cyclized trimer of the Staphylococcus aureus protein A Z domain) (designed binder) | 7.6 | -32.7 | 2.1 | 4.9 | 1.5 | 3.3 | 0.00073 | 220000 | – | –
2 | linear Z3 (linear trimer of the Staphylococcus aureus protein A Z domain) (designed binder) | 2.8 | -33 | – | 4.9 | 3.3 | 2.9 | 0.00092 | 310000 | 1.9 | < 3
